Measured values as given in the Human Domainome abundance scans (Beltran et al. 2025).

B1: Unconventional myosin-Ie, residues 1051 to 1108; numbered along this chain, Q12965 (parent)
chain: PQVPQCKALYAYDAQDTDELSFNANDIIDIIKEDPSGWWTGRLRGKQGLFPNNYVTKI

Variants of: B1
Experiment: abundance fitness (aPCA) (normalised: wild type 0, dead -1); higher = more abundant; growth selection in yeast, the domain comes from the species named
Settings: Homo sapiens

Abundance fitness of substitutions, site by site:
L43: Q -0.621, S -0.269, Y -0.328, A -0.123, R -0.417, K -0.453, N -0.331, T -0.113, G -0.762, I 0.062, F 0.014, V -0.063, E -0.701, W -0.706, C -0.267, M 0.101
Q47: D -0.417, E -0.066, V 0.041, K 0.007, P -0.32, A -0.222, L -0.194, H -0.149, F -0.167, G -0.451, Y 0.248, N -0.507, T 0.005, W -0.111, M -0.169, R -0.099, I -0.216, S -0.16, C -0.236
G45: Q -0.149, D -0.075, N 0.06, R -0.337, A -0.319, H -0.1, P -0.977, T -0.353, M -0.161, I -0.639, L -0.416, F -0.321, E -0.058, V -0.762, C -0.303, W -0.702
R44: Q -0.071, K -0.181, S -0.08, W -0.467, C -0.139, L -0.164, D -0.019, E -0.319, N 0.068, H -0.236, A -0.074, G -0.137, V -0.19, F -0.134, I -0.759, M -0.179
F50: A -0.841, Y -0.831, R -0.968, T -1.08, C -0.94, W -0.944, M -0.31, I 0.069, V -0.208, P -0.896, D -0.839, E -0.911, G -0.826, K -1.07, L -0.19
T56: F -0.023, V -0.074, D -0.034, C -0.074, Y -0.197, M 0.023, K -0.165, H 0.044, I -0.261, P -0.534, E 0.033, G -0.255, R -0.097, N -0.078, W -0.122, A -0.075, S -0.042
I58: Y -0.299, V -0.055, D -0.089, S -0.15, M 0.015, H -0.333, F -0.116, L -0.091, R -0.32, G -0.456, T -0.484
K57: N -0.143, W -0.554, T -0.365, Q -0.315, V -0.257, L -0.442, M -0.34, Y 0.151, A -0.337, G -0.391, S -0.323, P -0.218, E -0.266, D -0.295
P51: S -0.287, A -0.341, F -0.302, D -0.114, Q -0.438, Y -0.425, L -0.198, K -0.18, W -0.143, H -0.264, M -0.484, G -0.771, C -0.316, R -0.026, E -0.674, V -0.94
R42: W -0.06, K 0.104, L -0.161, T -0.114, Q -0.028, P -0.897, Y -0.366, M -0.394, N -0.005
K46: I -0.351, F -0.364, G -0.411, D -0.33, R -0.01, V -0.051, M 0.054, W -0.569, P -0.715, S -0.073, C -0.099, L -0.152, T -0.146, H -0.172, Y -0.351
V55: P -0.747, C -0.197, T -0.111, W -0.645, S -0.732, E -0.945, Q -1.02, M -0.534, D -0.777, A -0.387, N -0.632, I -0.27, G -0.94
Y54: F -0.243, I -0.296, H 0.038, M -0.16, Q -0.43, A -0.055, C -0.087, V -0.145, L -0.04, E -0.97, N -0.657, D -0.949, G -0.713, P -0.814, K -0.158
L49: W -0.157, P -0.656, G -0.16, T -0.288, Q -0.151, A -0.236, I -0.219, R 0.09, N -0.428, D -0.319, K 0.036, H -0.317, E -0.242, C -0.025, V -0.015
G48: W -0.609, C -0.477, F -0.598, D -0.885, R -0.646, T -0.91, L -0.399, N -0.626, K -0.718, Q -0.826, A -0.171, V -0.756, M -0.579
N52: D -0.195, T -0.087, F 0.002, K -0.284, Y -0.209, I -0.123, H -0.087, V -0.068, Q -0.197, W -0.053, G 0.02, R -0.114, A 0.03, M -0.231, S 0.024, E 0.019, C -0.515, L -0.027
N53: D 0.016, A -0.147, V -0.176, L -0.188, M 0.075, K -0.066, Q -0.07, G -0.027, Y -0.22, S -0.262, C -0.021, W -0.151, T -0.275, H -0.012, E -0.078, F 0.071, P -0.516
